# T1: μ-opioid receptor (rat (endogenous in rat brain)), P33535
# T1 chain: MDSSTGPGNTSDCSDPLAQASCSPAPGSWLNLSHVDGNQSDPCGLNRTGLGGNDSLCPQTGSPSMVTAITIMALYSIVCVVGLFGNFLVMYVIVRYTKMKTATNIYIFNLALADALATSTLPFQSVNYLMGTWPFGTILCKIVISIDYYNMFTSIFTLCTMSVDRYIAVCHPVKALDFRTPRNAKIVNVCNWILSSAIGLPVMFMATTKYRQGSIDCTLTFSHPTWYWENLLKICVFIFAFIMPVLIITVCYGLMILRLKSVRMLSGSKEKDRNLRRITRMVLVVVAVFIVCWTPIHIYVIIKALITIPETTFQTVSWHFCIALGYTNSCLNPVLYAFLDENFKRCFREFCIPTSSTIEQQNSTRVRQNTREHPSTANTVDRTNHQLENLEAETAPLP
# B1: endomorphin-2 (EM-2) (peptide)
# chain: YPFF
# modifications: not checked
# Molecular target: T1, μ-opioid receptor (rat (endogenous in …))
# Experiment: radioligand binding; displacement of [^3H]DAMGO from rat brain membrane homogenate by unlabelled ligand (10^-10 to 10^-5 M); 50 mM Tris-HCl pH 7.4, 35 °C, 45 min; non-specific binding with 10 μM naloxone; IC50 converted into Ki by Cheng-Prusoff, one site competition fit
binder,measurement,value
B1,Ki,3.16 nM

# Source: article PMC7072329, “Discovery of Kynurenines Containing Oligopeptides as Potent Opioid Receptor Agonists” (Biomolecules, 2020)
